Consider one molecule from patent US20250066499A1 (SUNSHINE GUOJIAN PHARMACEUTICAL SHANGHAI, published 2025).

Numbering of substitutions follows the chain as printed.

The target of assay [1] is T1, CD73-ND-his (human, UniProt P21589 27-317).
T1 construct: Biotinylated and captured on streptavidin in the ELISA
T1 sequence: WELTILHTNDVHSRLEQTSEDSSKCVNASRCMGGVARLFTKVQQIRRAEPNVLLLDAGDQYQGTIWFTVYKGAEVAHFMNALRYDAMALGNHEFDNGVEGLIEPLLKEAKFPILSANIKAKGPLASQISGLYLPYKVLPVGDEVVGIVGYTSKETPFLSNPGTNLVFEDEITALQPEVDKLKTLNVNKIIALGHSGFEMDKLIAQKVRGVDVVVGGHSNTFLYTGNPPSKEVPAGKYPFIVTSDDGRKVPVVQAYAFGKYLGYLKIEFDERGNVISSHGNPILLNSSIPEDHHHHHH
The assay can be described thus: ELISA; decline multiple of Top against CD73-ND. Here is the method: (§1) The ELISA plates were coated with SA protein diluted to 1.5 μg/mL in coating buffer (50 mM carbonate coating buffer, pH 9.6) and incubated overnight at 4° C. The supernatant was discarded, and the plates were washed three times with PBST. Then, 5% skimmed milk powder prepared with PBS was added for blocking and the plates were incubated for 2 h at 37° C. After washing the plates once with PBST, CD73-biotin protein (prepared by biotinylating CD73-His protein according to the EZ-Link NHS-Biotin Reagent instructions) was diluted to 0.5 μg/mL and added at 100 μL/well for incubation at room temperature for 1 h. The plates were washed three times with PBST, and the prepared murine-derived monoclonal antibodies against human CD73 were serially diluted with 1% BSA buffer prepared with PBST and added to the ELISA plates at 100 μl/well. The plates were incubated at 37° C. for 1 h. After washing the plates three times with PBST, HRP-labeled goat anti-mouse IgG secondary antibody was added and the plates were incubated for 30 min at 37° C. After washing the plates three times with PBST, the residual droplets were patted dry on absorbent paper as much as possible. Then, 100 μl of TMB color developing solution was added to each well, and the plates were incubated in the dark at room temperature for 5 min for color development. Subsequently, 50 μl of 2M H₂SO₄ stop solution was added to each well to terminate the substrate reaction. The OD values were read at 450 nm using a multimode microplate reader to analyze the binding ability of the tested antibodies to the target antigen human CD73-His.
(§2) Referring to the experimental method in Example 3, the affinity of 48A11-HuV33 for various mutant proteins of CD73-ND was determined. The SA protein was diluted to 1 μg/mL for coating the ELISA plates, and the biotinylated CD73 protein (CD73-biotin) was used at a concentration of 0.1 μg/mL.
(In general: An ELISA detects its analyte on a solid surface through an enzyme-linked reagent.)

In another assay the target is T2, CD73-ND-E143A (human, UniProt P21589 27-317).
T2 construct: Alanine mutant of CD73-ND
T2 sequence: T1 sequence with E143A
The assay can be described thus: ELISA; decline multiple of Top against CD73-ND. The protocol: as §1, §2

A further assay deals with T3, CD73-ND-L181A (human, UniProt P21589 27-317).
T3 construct: Alanine mutant of CD73-ND
T3 sequence: T1 sequence with L181A
Briefly: ELISA; decline multiple of Top against CD73-ND. The protocol: as §1, §2

The target in a further assay is T4, CD73-ND-T183A (human, UniProt P21589 27-317).
T4 construct: Alanine mutant of CD73-ND
T4 sequence: T1 sequence with T183A
Briefly: ELISA; decline multiple of Top against CD73-ND. The protocol:
as §1, §2

A further assay deals with T5, CD73-ND-N185A (human, UniProt P21589 27-317).
T5 construct: Alanine mutant of CD73-ND
T5 sequence: T1 sequence with N185A
Briefly: ELISA; decline multiple of Top against CD73-ND. The protocol:
as §1, §2

For assay [2], the target named is T1, CD73-ND-his. Briefly: ELISA, biotinylated antigen on streptavidin plate. The protocol: as §1, §2
The target of another assay is T6, CD73-ND-V144A (human, UniProt P21589 27-317).
T6 construct: Alanine mutant of CD73-ND
T6 sequence: T1 sequence with V144A
Briefly: ELISA, biotinylated antigen on streptavidin plate. Here is the method:
as §1, §2

B1: 48A11-HuV33 (antibody, human IgG4, V domains shown)
VH: QVQLVQSGAEVKKPGASVKVSCKASGYTFTSYWMHWVRQAPGQGLEWIGEINPSIGRTNYNEKFKSRVTLTRDTSTSTAYMELSSLRSEDTAVYYCARRVYGTMDYWGQGTLVTVSS
VL: DIQMTQSPSSLSASVGDRVTITCKASQDINSYLSWFQQKPGKSPKLLIYRANIWVDGVPSRFSGSGSGQDYTFTISSLQPEDIATYYCLQYDELYTFGQGTKVEIK
notes: Humanized
A word on the EC50: it is the concentration at which the effect is half-maximal. A low value points to a more potent agent. For the molecule B1, the “Ratio(Top)” value with CD73-ND-his [1] came to 1 fold; with CD73-ND-E143A, 1.1 fold; in the assay with CD73-ND-L181A it was 1.9 fold; with CD73-ND-T183A it was 1 fold; in the assay with CD73-ND-N185A, 1 fold. In addition, the EC50 with CD73-ND-his [2] was determined as 0.117 nM; with CD73-ND-V144A it was 0.29 nM.
